For this assay, the target named is unmodified, wild-type (WT) human FcRn (neonatal Fc receptor) (human) (UniProt P55899). The experiment in a line: FcRn affinity chromatography with pH monitor.
Chain of UniProt P55899 (P55899 24-297, chain 1 of 2): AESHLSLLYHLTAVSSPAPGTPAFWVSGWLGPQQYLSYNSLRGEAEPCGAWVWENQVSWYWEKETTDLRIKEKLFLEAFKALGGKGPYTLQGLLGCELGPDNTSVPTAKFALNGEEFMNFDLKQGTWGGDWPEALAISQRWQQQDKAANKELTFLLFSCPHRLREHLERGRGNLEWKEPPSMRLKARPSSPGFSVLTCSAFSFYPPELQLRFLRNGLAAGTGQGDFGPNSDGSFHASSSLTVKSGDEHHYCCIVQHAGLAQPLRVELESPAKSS
Chain of UniProt P55899 (P61769 21-119, chain 2 of 2, further chain): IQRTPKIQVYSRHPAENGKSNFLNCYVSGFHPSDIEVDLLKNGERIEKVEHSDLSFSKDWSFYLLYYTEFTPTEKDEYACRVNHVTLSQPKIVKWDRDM
Substance durvalumab (antibody) registered a FcRn dissociation pH (mean) of 7.28 pH.

Regarding adalimumab (antibody), the FcRn dissociation pH (mean) was found to be 7.39 pH. Take “NIST mAb (reference material RM8671) (antibody)”: the FcRn dissociation pH (mean) was found to be 7.22 pH. cusatuzumab (antibody): the FcRn dissociation pH (mean) is 7.12 pH. Take margetuximab (antibody): the FcRn dissociation pH (mean) came out at 7.34 pH. The figure for cetuximab (antibody) is 7.25 pH. The figure for briakinumab (antibody) is 7.81 pH; for rituximab (antibody) it is 7.43 pH.

The values above are taken from PMC10443974.
